Assay [1] deals with PT linker-SpyCatcher-His (Streptococcus pyogenes). Nature of the assay: depletion of SpyTag-GA (15 mg/g resin) from supernatant, conditions of Example 4.3; SpyCatcher modified epoxy carrier, batch 1.
Assay [2] has the same target. Kind of assay: depletion of SpyTag-GA (15 mg/g resin) from supernatant, conditions of Example 4.3; SpyCatcher modified epoxy carrier, batch 2.
Assay [3] has the same target. Nature of the assay: depletion of SpyTag-GA (15 mg/g resin) from supernatant, conditions of Example 4.3; SpyCatcher modified epoxy carrier, batch 3.
Assay [4] shares this target. Nature of the assay: depletion of SpyTag-GA (15 mg/g resin) from supernatant, conditions of Example 4.3; SpyCatcher modified epoxy carrier, batch 4.
Assay [5] has the same target. Nature of the assay: depletion of SpyTag-GA (15 mg/g resin) from supernatant, conditions of Example 4.3; SpyCatcher modified epoxy carrier, batch 5.
Assay [6] has the same target. Nature of the assay: depletion of purified SpyTag-GA (15 mg/g carrier) from supernatant, SDS-PAGE densitometry; SpyCatcher-LX-1000EP; pH 7.0, 25 C, 2 h.
Assay [7] shares this target. Nature of the assay: depletion of SpyTag-GA (10 mg/g carrier) from E. coli lysate supernatant, SDS-PAGE densitometry; SpyCatcher on HFA001 epoxy carrier.
Assay [8] shares this target. Nature of the assay: depletion of SpyTag-GA (10 mg/g carrier) from E. coli lysate supernatant, SDS-PAGE densitometry; SpyCatcher on ECR8204 epoxy carrier.
Assay [9] shares this target. Kind of assay: depletion of SpyTag-GA (10 mg/g carrier) from E. coli lysate supernatant, SDS-PAGE densitometry; SpyCatcher on ECR8285 epoxy carrier.
Assay [10] shares this target. Nature of the assay: depletion of SpyTag-GA (10 mg/g carrier) from E. coli lysate supernatant, SDS-PAGE densitometry; SpyCatcher on LX-103B epoxy carrier.
The target is the same in assay [11]. Nature of the assay: depletion of SpyTag-GA (10 mg/g carrier) from E. coli lysate supernatant, SDS-PAGE densitometry; SpyCatcher on LX-1000EP epoxy carrier.
The target is the same in assay [12]. Nature of the assay: depletion of SpyTag-GA (2.0 mg/g carrier) from E. coli lysate supernatant, SDS-PAGE densitometry; SpyCatcher-LX-1000EP; pH 7.0, 25 C, 2 h.
Assay [13] shares this target. Kind of assay: depletion of SpyTag-GA (10 mg/g carrier) from E. coli lysate supernatant, SDS-PAGE densitometry; SpyCatcher on LX-107S epoxy carrier (blocking control without SpyCatcher 72.5).

Take “SpyTag-GS linker-GA-His fusion protein of a SpyTag and glutaryl-7-amidocephalosporanic acid acylase (from UniProt P07662 30-720) (enzyme)”: the Immobilization Efficiency (%) in assay [1] is 94.7%; in assay [2] it was 92.2%; in assay [3] it was 90.9%; in [4] it was 86.6%; in [5], 96.9%; in assay [6] it was 91.5%. For the same substance, the Immobilization Efficiency (%) worked out at 79.4% in [7]; 52.1% in [8]; 57.4% in assay [9]; 77% in [10]; 77.6% in assay [11]; 86.2% in assay [12]. Also, the Immobilization Efficiency (%) in assay [13] came out at 49.1%.

(Values after US20240317895A1.)
